Laboratory results published in patent US20200317768A1 (published 2020).

T1: human FcγRIIaR extracellular domain, C-terminal His-tag (human, UniProt P12318 34-217)
T1 construct: also called human FcγRIIa (type R); FcgRIIaR; not shown: His-tag added to C-terminus
T1 chain: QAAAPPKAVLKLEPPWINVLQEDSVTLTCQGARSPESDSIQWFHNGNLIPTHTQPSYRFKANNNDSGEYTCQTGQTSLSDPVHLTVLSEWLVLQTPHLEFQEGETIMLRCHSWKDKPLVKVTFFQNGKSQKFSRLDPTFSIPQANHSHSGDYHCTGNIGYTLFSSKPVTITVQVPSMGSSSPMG

T2: human FcγRIIb extracellular domain, C-terminal His-tag (human, UniProt P31994 43-217)
T2 construct: also called humanFcgRIIb; not shown: His-tag added to C-terminus
T2 sequence: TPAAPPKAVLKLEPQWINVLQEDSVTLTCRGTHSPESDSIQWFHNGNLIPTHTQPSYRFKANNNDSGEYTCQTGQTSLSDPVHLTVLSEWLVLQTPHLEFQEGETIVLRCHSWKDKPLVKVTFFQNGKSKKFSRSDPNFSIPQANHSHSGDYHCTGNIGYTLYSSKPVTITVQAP

T3: cynomolgus monkey FcγRIIa3 extracellular domain, C-terminal His-tag (cynomolgus monkey)
T3 construct: also called cyno FcγRIIa3; cynoFcgRIIa3; not shown: His-tag added to C-terminus
T3 chain: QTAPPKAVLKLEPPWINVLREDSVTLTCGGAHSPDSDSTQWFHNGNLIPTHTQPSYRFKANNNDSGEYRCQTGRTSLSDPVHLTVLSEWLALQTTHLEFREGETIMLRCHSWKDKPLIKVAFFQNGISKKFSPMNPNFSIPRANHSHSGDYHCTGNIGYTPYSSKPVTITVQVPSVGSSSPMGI

T4: cynomolgus monkey FcγRIIa2 extracellular domain, C-terminal His-tag (cynomolgus monkey)
T4 construct: also called cyno FcγRIIa2; cynoFcgRIIa2; not shown: His-tag added to C-terminus
T4 chain: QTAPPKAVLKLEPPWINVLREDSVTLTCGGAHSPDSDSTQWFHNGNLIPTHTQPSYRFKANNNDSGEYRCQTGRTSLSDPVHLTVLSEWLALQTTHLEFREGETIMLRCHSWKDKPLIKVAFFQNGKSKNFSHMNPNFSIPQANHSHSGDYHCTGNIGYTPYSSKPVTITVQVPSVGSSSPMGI

T5: cynomolgus monkey FcγRIIa1 extracellular domain, C-terminal His-tag (cynomolgus monkey)
T5 construct: also called cyno FcγRIIa1; cynoFcgRIIa1; not shown: His-tag added to C-terminus
T5 chain: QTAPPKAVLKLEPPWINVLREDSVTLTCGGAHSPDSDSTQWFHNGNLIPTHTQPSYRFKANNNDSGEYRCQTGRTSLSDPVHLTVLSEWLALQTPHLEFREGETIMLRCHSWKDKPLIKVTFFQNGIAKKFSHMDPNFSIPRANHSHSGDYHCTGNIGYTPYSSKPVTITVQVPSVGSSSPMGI

T6: human FcγRIIaH extracellular domain, C-terminal His-tag (human, UniProt P12318 34-217)
T6 construct: also called human FcγRIIa (type H); FcgRIIaH; not shown: His-tag added to C-terminus
T6 sequence: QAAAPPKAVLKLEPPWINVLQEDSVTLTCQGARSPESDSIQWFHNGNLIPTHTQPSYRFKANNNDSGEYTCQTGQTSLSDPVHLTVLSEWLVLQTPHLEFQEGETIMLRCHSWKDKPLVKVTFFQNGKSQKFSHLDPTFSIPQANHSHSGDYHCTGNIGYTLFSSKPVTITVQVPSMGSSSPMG

T7: cynomolgus monkey FcγRIIb extracellular domain, C-terminal His-tag (cynomolgus monkey)
T7 construct: also called cyno FcγRIIb; cynoFcγRIIb; not shown: His-tag added to C-terminus
T7 chain: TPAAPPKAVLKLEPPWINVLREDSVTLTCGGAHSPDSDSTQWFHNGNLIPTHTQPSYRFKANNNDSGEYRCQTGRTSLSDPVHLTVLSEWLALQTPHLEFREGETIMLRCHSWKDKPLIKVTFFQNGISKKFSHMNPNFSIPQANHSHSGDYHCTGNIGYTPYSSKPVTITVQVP


How the values were obtained:
[1] = molecular target: T8, cynomolgus monkey FcγRIIIaS extracellular domain, C-terminal His-tag (cynomolgus monkey, UniProt A3RFZ7 21-206 (rhesus entry)); test: SPR (BIACORE); KD of parent SG1 / KD of variant;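 further: relative to parent M103205H795-SG1 carrying the SG1 human heavy chain constant region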
T8 construct: also called cyno FcγRIIIaS; cynoFcγRIIIaS; not shown: His-tag added to C-terminus

[2] = molecular target: T9, human FcγRIIIaV extracellular domain, C-terminal His-tag (human, UniProt P08637 17-208); test: SPR (BIACORE); KD of parent SG1 / KD of variant;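 further: relative to parent M103205H795-SG1 carrying the SG1 human heavy chain constant region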
T9 construct: also called FcgRIIIaV; not shown: His-tag added to C-terminus

[3] = molecular target: T1, human FcγRIIaR extracellular domain, …; test: SPR (BIACORE); KD of parent SG1 / KD of variant;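 further: relative to parent M103205H795-SG1 carrying the SG1 human heavy chain constant region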
[4] = molecular target: T2, human FcγRIIb extracellular domain, …; test: SPR (BIACORE); KD of parent SG1 / KD of variant;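 further: relative to parent M103205H795-SG1 carrying the SG1 human heavy chain constant region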
[5] = molecular target: T3, cynomolgus monkey FcγRIIa3 …; test: SPR (BIACORE); KD of parent SG1 / KD of variant
[6] = molecular target: T4, cynomolgus monkey FcγRIIa2 …; test: SPR (BIACORE); KD of parent SG1 / KD of variant
[7] = molecular target: T5, cynomolgus monkey FcγRIIa1 …; test: SPR (BIACORE); KD of parent SG1 / KD of variant
[8] = molecular target: T6, human FcγRIIaH extracellular domain, …; test: SPR (BIACORE); KD of parent SG1 / KD of variant
[9] = molecular target: T7, cynomolgus monkey FcγRIIb extracellular …; test: SPR (BIACORE); KD of parent SG1 / KD of variant
[10] = molecular target: T8, cynomolgus monkey FcγRIIIaS …; test: SPR (BIACORE), antibody captured, FcγR analyte
[11] = molecular target: T9, human FcγRIIIaV extracellular domain, …; test: SPR (BIACORE), antibody captured, FcγR analyte
[12] = molecular target: T1, human FcγRIIaR extracellular domain, …; test: SPR (BIACORE), antibody captured, FcγR analyte
[13] = molecular target: T2, human FcγRIIb extracellular domain, …; test: SPR (BIACORE), antibody captured, FcγR analyte
[14] = molecular target: T3, cynomolgus monkey FcγRIIa3 …; test: SPR (BIACORE), antibody captured, FcγR analyte
[15] = molecular target: T4, cynomolgus monkey FcγRIIa2 …; test: SPR (BIACORE), antibody captured, FcγR analyte
[16] = molecular target: T5, cynomolgus monkey FcγRIIa1 …; test: SPR (BIACORE), antibody captured, FcγR analyte
[17] = molecular target: T6, human FcγRIIaH extracellular domain, …; test: SPR (BIACORE), antibody captured, FcγR analyte
[18] = molecular target: T7, cynomolgus monkey FcγRIIb extracellular …; test: SPR (BIACORE), antibody captured, FcγR analyte

T9 sequence (P08637 17-208 F176V): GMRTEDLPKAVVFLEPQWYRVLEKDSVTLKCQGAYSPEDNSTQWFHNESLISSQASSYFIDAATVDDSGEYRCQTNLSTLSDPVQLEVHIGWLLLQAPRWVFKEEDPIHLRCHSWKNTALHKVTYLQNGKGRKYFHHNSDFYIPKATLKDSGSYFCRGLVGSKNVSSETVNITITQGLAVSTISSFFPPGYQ
T8 sequence (A3RFZ7 21-206): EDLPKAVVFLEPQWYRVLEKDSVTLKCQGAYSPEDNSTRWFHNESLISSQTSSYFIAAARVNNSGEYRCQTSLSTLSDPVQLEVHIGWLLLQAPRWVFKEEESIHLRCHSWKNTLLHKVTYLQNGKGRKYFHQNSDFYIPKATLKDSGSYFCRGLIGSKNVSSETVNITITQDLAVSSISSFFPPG

Row | KD fold (SG1 = 1) [1] [fold] | KD fold (SG1 = 1) [2] [fold] | KD fold (SG1 = 1) [3] [fold] | KD fold (SG1 = 1) [4] [fold] | KD fold (SG1 = 1) [5] [fold] | KD fold (SG1 = 1) [6] [fold] | KD fold (SG1 = 1) [7] [fold] | KD fold (SG1 = 1) [8] [fold] | KD fold (SG1 = 1) [9] [fold] | Kd [10] [nM] | Kd [11] [µM] | Kd [12] [nM] | Kd [13] [nM] | Kd [14] [nM] | Kd [15] [nM] | Kd [16] [nM] | Kd [17] [nM] | Kd [18] [nM] | Binder
1 | 0.19 | 0.13 | 1.7 | 10.5 | 6.1 | 6.1 | 5.8 | 2.1 | 12.6 | 1400 | 4.6 | 560 | 370 | 1100 | 680 | 650 | 450 | 140 | M103240H795-SG1080 / M103202L1045-SK1 (antibody, CH with G236N/H268D/Q295L/Q311R/K326T/A330K/P343R/N434A/Q438R/S440E against SG1 (EU numbering); also called MS1032LO19-SG1080) heavy: QVQLVESGGGLVQPGGSLRLSCAVSGIDLSHDDISWVRQAPGKGLEWVSIISYAGSTYYASWAKGRLTISKDTSKNQVVLTMTNMDPVDTATYYCARGVPAYSHGGDLWGQGTLVTVSSASTKGPSVFPLAPSSKSTSGGTAALGCLVKDYFPEPVTVSWNSGALTSGVHTFPAVLQSSGLYSLSSVVTVPSSSLGTQTYICNVNHKPSNTKVDKKVEPKSCDKTHTCPPCPAPELLNGPSVFLFPPKPKDTLMISRTPEVTCVVVDVSDEDPEVKFNWYVDGVEVHNAKTKPREELYNSTYRVVSVLTVLHRDWLNGKEYKCKVSNTALPKPIEKTISKAKGQRREPQVYTLPPSREEMTKNQVSLTCLVKGFYPSDIAVEWESNGQPENNYKTTPPVLDSDGSFFLYSKLTVDKSRWQQGNVFSCSVMHEALHAHYTRKELSLSP light: DIVMTQSPATLSLSPGERATLSCTTSQSVYHENWLSWFQQKPGQPPKLLIYWASTLAYGVPSRFSGSGSGTDFTLTISSLQPEDAATYYCAGGYGGGRYAFGQGTKVEIKRTVAAPSVFIFPPSDEQLKSGTASVVCLLNNFYPREAKVQWKVDNALQSGNSQESVTEQDSKDSTYSLSSTLTLSKADYEKHKVYACEVTHQGLSSPVTKSFNRGEC
2 | 0.09 | 0.17 | 1.4 | 7.5 | 3.3 | 3.1 | 2.7 | 1 | 5.4 | 2900 | 3.4 | 690 | 510 | 2000 | 1300 | 1400 | 930 | 320 | M103240H795-SG1077 / M103202L1045-SK1 (antibody, CH with L235W/G236N/H268D/Q295L/Q311R/K326T/A330K/P343R/M428L/N434A/Y436T/Q438R/S440E against SG1 (EU numbering); also called MS1032LO19-SG1077) heavy: QVQLVESGGGLVQPGGSLRLSCAVSGIDLSHDDISWVRQAPGKGLEWVSIISYAGSTYYASWAKGRLTISKDTSKNQVVLTMTNMDPVDTATYYCARGVPAYSHGGDLWGQGTLVTVSSASTKGPSVFPLAPSSKSTSGGTAALGCLVKDYFPEPVTVSWNSGALTSGVHTFPAVLQSSGLYSLSSVVTVPSSSLGTQTYICNVNHKPSNTKVDKKVEPKSCDKTHTCPPCPAPELWNGPSVFLFPPKPKDTLMISRTPEVTCVVVDVSDEDPEVKFNWYVDGVEVHNAKTKPREELYNSTYRVVSVLTVLHRDWLNGKEYKCKVSNTALPKPIEKTISKAKGQRREPQVYTLPPSREEMTKNQVSLTCLVKGFYPSDIAVEWESNGQPENNYKTTPPVLDSDGSFFLYSKLTVDKSRWQQGNVFSCSVLHEALHAHTTRKELSLSP light: DIVMTQSPATLSLSPGERATLSCTTSQSVYHENWLSWFQQKPGQPPKLLIYWASTLAYGVPSRFSGSGSGTDFTLTISSLQPEDAATYYCAGGYGGGRYAFGQGTKVEIKRTVAAPSVFIFPPSDEQLKSGTASVVCLLNNFYPREAKVQWKVDNALQSGNSQESVTEQDSKDSTYSLSSTLTLSKADYEKHKVYACEVTHQGLSSPVTKSFNRGEC
3 | 0.09 | 0.17 | 1.4 | 7.7 | 3.1 | 3.2 | 2.7 | 1 | 5.9 | 2900 | 3.4 | 680 | 500 | 2100 | 1800 | 1400 | 990 | 290 | M103240H795-SG1081 / M103202L1045-SK1 (antibody, CH with L235W/G236N/H268D/Q295L/Q311R/K326T/A330K/P343R/N434A/Q438R/S440E against SG1 (EU numbering); also called MS1032LO19-SG1081) heavy: QVQLVESGGGLVQPGGSLRLSCAVSGIDLSHDDISWVRQAPGKGLEWVSIISYAGSTYYASWAKGRLTISKDTSKNQVVLTMTNMDPVDTATYYCARGVPAYSHGGDLWGQGTLVTVSSASTKGPSVFPLAPSSKSTSGGTAALGCLVKDYFPEPVTVSWNSGALTSGVHTFPAVLQSSGLYSLSSVVTVPSSSLGTQTYICNVNHKPSNTKVDKKVEPKSCDKTHTCPPCPAPELWNGPSVFLFPPKPKDTLMISRTPEVTCVVVDVSDEDPEVKFNWYVDGVEVHNAKTKPREELYNSTYRVVSVLTVLHRDWLNGKEYKCKVSNTALPKPIEKTISKAKGQRREPQVYTLPPSREEMTKNQVSLTCLVKGFYPSDIAVEWESNGQPENNYKTTPPVLDSDGSFFLYSKLTVDKSRWQQGNVFSCSVMHEALHAHYTRKELSLSP light: DIVMTQSPATLSLSPGERATLSCTTSQSVYHENWLSWFQQKPGQPPKLLIYWASTLAYGVPSRFSGSGSGTDFTLTISSLQPEDAATYYCAGGYGGGRYAFGQGTKVEIKRTVAAPSVFIFPPSDEQLKSGTASVVCLLNNFYPREAKVQWKVDNALQSGNSQESVTEQDSKDSTYSLSSTLTLSKADYEKHKVYACEVTHQGLSSPVTKSFNRGEC
